From US20200308290A1 (AbbVie / Abbott, published 2020)
Where two headings read alike, the source gives them in different places.

Legend:
[1] = biological target: T1, CD25 (recombinant) (human, UniProt P01589 22-213, limits assumed); experiment: SPR (BIAcore)
T1 construct: bought protein; also called IL2-R alpha; IL2-Rα
T1 sequence (looked up): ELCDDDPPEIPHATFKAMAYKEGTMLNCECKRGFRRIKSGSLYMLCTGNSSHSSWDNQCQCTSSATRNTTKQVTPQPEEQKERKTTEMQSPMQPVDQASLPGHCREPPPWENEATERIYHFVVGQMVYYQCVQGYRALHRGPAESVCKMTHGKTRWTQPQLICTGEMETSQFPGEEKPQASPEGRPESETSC

[2] = biological target: T1, CD25 (recombinant); experiment: ELISA, relative to wild type
[3] = biological target: T2, recombinant human CD25 (IL2-Rα) (human, UniProt P01589 22-213, limits assumed); experiment: SPR (BIAcore), antibody captured by anti-human Fc, soluble human CD25 as analyte, n=3
T2 construct: Bought protein; also called recombinant human IL2-Rα; recombinant soluble human CD25
T2 sequence (looked up): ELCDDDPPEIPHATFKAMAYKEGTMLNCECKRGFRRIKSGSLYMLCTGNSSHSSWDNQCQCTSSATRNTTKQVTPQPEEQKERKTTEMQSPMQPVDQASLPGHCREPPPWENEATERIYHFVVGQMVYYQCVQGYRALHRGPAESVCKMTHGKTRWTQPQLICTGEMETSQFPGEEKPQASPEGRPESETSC
Description: (§1) For this capture approach, 30 μg/ml of GAHFc was immobilized to achieve a high response unit (20,000 RU) on each flow cell on the Research-grade CMS sensor chip using the BIAcore amine coupling reagents (N-ethyl-N′-dimethylamino-propylcarbodiimide, EDC; N-hydroxysuccinimide, NHS; and ethanolamine HCl, pH 8.5). […] A 3 min association phase of CD25 was followed by a 15 min injection of HBS-P running buffer (10 mM HEPES, 150 mM sodium chloride, 0.005% P-20 surfactant, pH 7.4) to monitor dissociation for each binding cycle, with a different CD25 concentration per cycle. The surface was regenerated with 20 mM HCl at 100 μl/min flow rate at the end of each cycle. […] Double referencing was applied in each analysis to eliminate background responses from reference surface and buffer only control (0 nM). […] Each set of experiments was performed three times to assess the standard deviation of the data.
(§2) Modified antibody proteins were tested for binding affinity using a surface plasmon resonance assay format in a BIAcore device. […] Recombinant soluble human CD25 was flowed over the sensor chip and changes in mass were detected.

[4] = biological target: T2, recombinant human CD25 (IL2-Rα); experiment: as above; remark: listed apart in the source
Description: as §1, §2

[5] = biological target: T3, cynomolgous CD25-HA (cynomolgous monkey, UniProt H6WS54 22-240); experiment: SPR (BIAcore), antibody captured by anti-human Fc, cynomolgous CD25-HA as analyte, n=3
T3 construct: also called cynomolgous monkey CD25; cmCD25; not shown: exact C-terminal limit of the PDL BioPharma construct
T3 sequence: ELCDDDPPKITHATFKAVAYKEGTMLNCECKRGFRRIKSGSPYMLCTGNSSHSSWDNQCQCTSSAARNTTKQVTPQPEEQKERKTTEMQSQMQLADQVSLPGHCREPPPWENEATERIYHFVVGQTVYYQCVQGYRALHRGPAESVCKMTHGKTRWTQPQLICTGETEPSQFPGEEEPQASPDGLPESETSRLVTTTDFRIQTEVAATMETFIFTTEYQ

B1: daclizumab variant S79 (antibody, IgG1, name in Kabat numbering, V domains shown)
VH: QVQLVQSGAEVKKPGSSVKVSCKASGYTFTSYRMHWVRQAPGQGLEWIGYINPSTGYTEYNQKFKDKATITADKSTNTAYMELSSLRSEDTAVYYCARGGGVFDYWGQGTLVTVSS
VL: DIQMTQSPSTLSASVGDRVTITCSASSSISYMHWYQQKPGKAPKLLIYTTSNLASGVPARFSGSGSGTEFTLTISSLQPDDFATYYCHQRSTYPLTFGQGTKVEVK
notes: IgG1; Kabat positions; also called E73K
B1 was tested, and the Kd [1] was 0.388 nM and the “ELISA (wt = 1)” value [2] was 1.5 fold (wt = 1).

B2: DAC I48M (antibody, IgG1, name in Kabat numbering, V domains shown)
VH: QVQLVQSGAEVKKPGSSVKVSCKASGYTFTSYRMHWVRQAPGQGLEWMGYINPSTGYTEYNQKFKDKATITADESTNTAYMELSSLRSEDTAVYYCARGGGVFDYWGQGTLVTVSS
VL: DIQMTQSPSTLSASVGDRVTITCSASSSISYMHWYQQKPGKAPKLLIYTTSNLASGVPARFSGSGSGTEFTLTISSLQPDDFATYYCHQRSTYPLTFGQGTKVEVK
notes: E.HAT variant, IgG1/kappa
In the case of B2, the Kd [3] is reported as 0.357 nM, the Kd [4] is reported as 0.375 nM and the Kd [5] is reported as 0.371 nM.
